This sample holds only a part of the variants without activity.
B1: TPR 5TU (parent)
chain: GGAUCUUCUCGAUCUAACAAAAAAGACAAAUCUGCCACAAAGCUUGAGAGCAUCUUCGGAUGCAGAGGCGGCAGCCUUCGGUGGCGCGAUAGCGCCAACGUUCUCAACUAUGACACGCAAAACGCGUGCUCCGUUGAAUGGAGUUUAUCAUG

Variants of: B1
Assay: polymerase ribozyme fitness, log enrichment relative to wild type (log ratio); higher = more active; in vitro selection for triplet polymerase activity
In short: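 After PCR construction and transcription, each subunit's mutant library from a heterodimeric triplet polymerase ribozyme was annealed with a biotinylated primer, the partner subunit and triplets. Incubation was frozen, at −7 °C, and extended constructs were gel-excised, bound to streptavidin beads and amplified by RT-PCR, in one selection round done in triplicate. Fitness is the logarithm of a genotype's enrichment divided by that of the wild type, from inverse-variance-weighted replicate averages of Illumina-sequenced inputs and outputs. The base of the logarithm is 2, and genotypes needed ≥10 input reads and ≥1 read per output.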

Row | Variant | polymerase ribozyme fitness (log ratio)
1 | G48C A73U U101C U104A A115G G124U | ≤ -4.2
2 | C35U C57A U61A G67A C95A C103A C116U | ≤ -4.2
3 | C57U G92A U104C U135C | ≤ -4.2
4 | C38U G126U | -0.118
5 | G50A C93U A142U | -3.71
6 | C35U C76A C95U U148A | ≤ -4.2
7 | G48U A49C G68U G74A C76A G88U C116G | ≤ -4.2
8 | A12C C35U A49C A64U C95U C123U | ≤ -4.2
9 | G48C G59A C85U C129A | -4.08
10 | U15C A22C C51U G81U C85U G94A A122G | -1.17
11 | U31A C38U C95U C96A | -1.16
12 | A49U C51A U55G C95A | -2.79
13 | C32U G50U C95A C131U G143A U151C | ≤ -4.2
14 | C14A U15G A26U G86U G92U A107U U109A C116A | ≤ -4.2
15 | A19U G25A U61A | ≤ -4.2
16 | A97U G152A | -2.62
17 | U13A C35U C57U | -1.42
18 | A21U A39U U61G G92U C108A G141A | ≤ -4.2
19 | U9C A12C A20G U53A A73U G92U C114A A121U G140A U151A | ≤ -4.2
20 | A21G U144A | 0.357
21 | A29C U45A C95G | ≤ -4.2
22 | G58U G92A | -2.51
23 | C8G G42A G59U A66U C87G U139G | ≤ -4.2
24 | U6G C14G A16C A20U A21U G42A U61A A64G G71A C85U C87U C129U G136A | ≤ -4.2

Row | Variant | polymerase ribozyme fitness (log ratio)
25 | A37U A64C U135C | ≤ -4.2
26 | C8A A24G A41C C93U A97U A120G | ≤ -4.2
27 | U78C A120U G133U G141A | -3.21
28 | G48U U146G | -1.42
29 | G71C U77A U90C C103A U104G C131G | ≤ -4.2
30 | A29U U55A G62C C116G | ≤ -4.2
31 | A40U G92A A98U U145G A147U | -4.09
32 | A39C C93U | -3.4
33 | A47U C57U | 0.131
34 | A47U C54U U56A G84C C99A C108U C114U G126U | ≤ -4.2
35 | A16G G128U | -3.4
36 | C38A C51U C95A C131A | -3.34
37 | A89G U139G | -0.875
38 | A19C A91U C95A | ≤ -4.2
39 | G84U C116A | -0.432
40 | A16U A17G C85G | -4.18
41 | C54G C63G C93U A115U C149G | ≤ -4.2
42 | A30G U82G A122G U146G | -4.18
43 | U55A A60G C99G G141C | -2.6
44 | C93A G124C | -2.88
45 | G46A G50C A52C C69A | ≤ -4.2
46 | U4C C51U C96A A121C U134A | -3.3
47 | A60C G92U A97G | -2.29
48 | G11A C51G C87G A89U C125A U135G | ≤ -4.2

Row | Variant | polymerase ribozyme fitness (log ratio)
49 | A24G G62U C85U U146A | ≤ -4.2
50 | A12U G58A C85G A106G A137U A150C | ≤ -4.2
51 | C32G C87G C93U C99G U104A C123U | ≤ -4.2
52 | A19U A73U | -0.608
53 | U53A G152U | -3.33
54 | A39U G83C | -2.01
55 | C5G A39G C51U A106G | ≤ -4.2
56 | U31C U45A G70C G92C | ≤ -4.2
57 | G83C G94U | -2.72
58 | G59C G86U | -1.67
59 | A16U C32G G34A C85G U90G A97G U134G G141C | ≤ -4.2
60 | A73C U77C C93U | ≤ -4.2
61 | U15G C38U C87U U104A | -1.04
62 | G25U C35U G86C C103U G133U | ≤ -4.2
63 | C54U C103A | -2.22
64 | A20U C54A G92U | -3.48
65 | G124C G136A | -2.84
66 | A22U C27G C57G U61A C95U U104G U145G | ≤ -4.2
67 | C93U C95G A113G A137U A138U | ≤ -4.2
68 | A16U G94A | -2.47
69 | A98U A150C | -2.82
70 | U15G U53A A91G | -2.83
71 | C27A C93U C116U G126A A147G | ≤ -4.2
72 | U13A C54G G68A C75G C76G U90G C95G A119U | ≤ -4.2

Row | Variant | polymerase ribozyme fitness (log ratio)
73 | C76G C96A U104G G112C | ≤ -4.2
74 | C5G C54G U56G C95U C125U C129A G133U | ≤ -4.2
75 | A47C U56G A91U C96G C118U A122C C131U U139C U148A | ≤ -4.2
76 | U33A G50A A64C G83C | ≤ -4.2
77 | C27G C32G C36G A73G C93G U135A | -4.18
78 | A26U U56A C93U | -3.4
79 | C32A C85G | ≤ -4.2
80 | C5A U9C G42A A52G A66C G74A U82A A89U C123A C129A G133U | ≤ -4.2
81 | A37C C54U C96U | -0.249
82 | G83A U90C | -3.51
83 | A37C G58A C87A U101G G124C A150U | ≤ -4.2
84 | A22U A52U U78A C85U U127A A137C | ≤ -4.2
85 | C27U C51U U53A U101G | -3.98
86 | G50U C87U C114A | -3.78
87 | G34A C36G C69G C76A C95G G112A | ≤ -4.2
88 | C27U G58A G59C C99U U102G A120C C125U | ≤ -4.2
89 | C14G A19G C54U C76G U82G A119G G128C U134C | ≤ -4.2
90 | G68A C75A U77A C95A A97G | ≤ -4.2
91 | C8U U15C A17U A40G G42C U61G C75U C93U C129U G133U | ≤ -4.2
92 | A16C A19U | -1.03
93 | A17C C32A U53A G67A G74C U101A | ≤ -4.2
94 | G83U C95U | -1.53
95 | G152C | -2.58
96 | G11A U55G G74C U77C A98U A115C | ≤ -4.2

Row | Variant | polymerase ribozyme fitness (log ratio)
97 | C96U C125A | -0.0844
98 | A40C A52C | -1.04
99 | A73U | -0.424
100 | C10A A22U A37C U134C A142G | -4
101 | A20G A26U | -2.24
102 | U55A C85U C103U | -0.7
103 | U9A C76A C85U G100C U104G A115U | ≤ -4.2
104 | C51A C96U | -1.91
105 | A26C U53A G58A | -2.74
106 | C32U A49C A52G G58U G62C C131G | ≤ -4.2
107 | C95U C99A G117U U148A | ≤ -4.2
108 | G74C G81C | -3.94
109 | C69G C76A G152U | -4.17
110 | C5A A113U | -2.74
111 | G84A A89U G136U | -2.91
112 | C32G G59C A66G U102A | ≤ -4.2
113 | A12G C27A U31G C35G C85A A97C C99G C149A | ≤ -4.2
114 | U15A U31A G83U C103G U139A | ≤ -4.2
115 | U7G A24C C43A A47G C75U C85A G86A C103G | ≤ -4.2
116 | A20U C32A C99A A115G A120U | -4.05
117 | C14G | -2.09
118 | G92A G152U | -3.58
119 | G67C A91C | ≤ -4.2
120 | A91U A98G U102G C105U | ≤ -4.2

Row | Variant | polymerase ribozyme fitness (log ratio)
121 | U4G C35A C79A G94A U148G | ≤ -4.2
122 | C99U G143C | -2.66
123 | G25U G84A | -3.07
124 | G74A A115C | -3.73
125 | A30C A41C C43U U53A C93U C125U A137G | ≤ -4.2
126 | A21U A23U C54U G58A G92U | ≤ -4.2
127 | C32A C54U C93A A110G A137G G140C | -4.17
128 | C103G | -1.4
129 | A12U U15G U56A G71C G84A G117U A120U A147U | -3.53
130 | G70C G94C | -3.44
131 | A20U A29U G71U G84A | ≤ -4.2
132 | A29U G42U G84U C114A | ≤ -4.2
133 | G42A A52C | -3.82
134 | A47C C69A C87U G100U A121G G143U | ≤ -4.2
135 | G84U | -1.91
136 | A3G U15C C93G U146G | -2.23
137 | G58C G143A | -0.724
138 | U53G G92C C93A | ≤ -4.2
139 | U56A G100U | -4.09
140 | U9G C85U G92U U145A | ≤ -4.2
141 | U61G C95G U135C | -4.17
142 | U31C C69G C96U G117U C118G | -1.49
143 | A19U C85U | -0.763
144 | C27U A47G C93A | -4.19

Row | Variant | polymerase ribozyme fitness (log ratio)
145 | U4A G92U | -0.358
146 | G65A A89U G94U | -2.57
147 | U13C U31G C32G C76U C131G | ≤ -4.2
148 | C57G G88U G94A | ≤ -4.2
149 | G80A G88C A113U C116U U148A | ≤ -4.2
150 | U130A | -1.66
151 | G58A C76U U101G | 0.481
152 | G11A A110G | -3.76
153 | U13G A21U A22C U82G G92U A98C C116U G136A | -4.02
154 | U15A A29C C35A G59A C76U G143C | ≤ -4.2
155 | A39U A47G U139G U151G | ≤ -4.2
156 | G86U C123G | -1.55
157 | G86U C103A A121G | -2.73
158 | U6A C93G | -3.92
159 | C27G G59U A60C A91U C105U U145C | ≤ -4.2
160 | A52G G83C C93U | -3.66
161 | A23U A60G G81A G83U | ≤ -4.2
162 | U9C C18G A21G A29U C87G | ≤ -4.2
163 | C32U U55A C63U C118A | -3.08
164 | C38U U55A | -0.159
165 | A52C A142G | -1.98
166 | C38A U56A A137G | -2.08
167 | C14G C75U | -2.58

Reference: the RNAGym collection of RNA variant scans (doi:10.1073/pnas.2313332121)
